Drawing on article PMC2749821 (2009), this text covers Kd for two molecules.

In general, Kd refers to the free concentration of one partner at which half of the binding sites on the other are occupied at equilibrium, for simple one-to-one binding. Low values mean a tighter complex, high ones a looser complex.

One assay concerns the target T1, BMPR1B (Mus musculus (Mouse), UniProt P36898).
T1 chain: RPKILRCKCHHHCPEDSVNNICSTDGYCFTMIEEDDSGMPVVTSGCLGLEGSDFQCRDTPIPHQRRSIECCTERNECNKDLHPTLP
Description: SPR 1:1 (ligand immobilised, monomeric ECD analyte).

Another assay has as its target T2, ACVR2B (Mus musculus (Mouse), UniProt P27040).
T2 chain: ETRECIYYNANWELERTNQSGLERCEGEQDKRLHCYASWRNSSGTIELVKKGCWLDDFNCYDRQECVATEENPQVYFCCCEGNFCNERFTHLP
The description is as above.

A value given as a limit tells only on which side of the number the result lay.

B1: BMP7 (protein)
chain 1: DQRQACKKHELYVSFRDLGWQDWIIAPEGYAAYYCEGECAFPLNSYMNATNHAIVQTLVHFINPETVPKPCCAPTQLNAISVLYFDDSSNVILKKYRNMVVRACGCH
chain 2: B1 chain 1
For the molecule B1, the Kd with BMPR1B was determined as 750 nM; in the assay with ACVR2B, 2500 nM.

B2: ActivinA (protein)
chain 1: GLECDGKVNICCKKQFFVSFKDIGWNDWIIAPSGYHANYCEGECPSHIAGTSGSSLSFHSTVINHYRMRGHSPFANLKSCCVPTKLRPMSMLYYDDGQNIIKKDIQNMIVEECGCS
chain 2: B2 chain 1
Take B2: the values for the Kd with BMPR1B and with ACVR2B were over 64000 nM and 88 nM, respectively.
